Test results taken from article PMC4090420 (Biochemistry, 2013).

Target: 2F5 MAb (human)
Assay: ELISA

B1: 2F5–17 αIM (designed binder)
chain: VSDVPRDLEVVAATPTSLLISWPYDKWAYRYYRITYGETGGNSPVQEFTVPGSKSTATISGLKPGVDYTITVYAVTRWYWVPHYSKPISINYRT
modifications: biotin on the birA site
- fold lower affinity than the MPER peptide: ~10 fold
